Experiment: protease stability score; higher = more stable; yeast display proteolysis, trypsin and chymotrypsin;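 note: relative to predicted unfolded state with 0 unfolded-like and 1 meaning tenfold more protease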

Row | Sequence | protease stability score
1 | DEQKHVFNNVLRWLLESLETGDEEDLERLMDPNTRLHINGQDLHGREALRKHIEHRLKSLGVDHVHLRVHDVHIIDGKIEVDSELDLKIGDKEIRMKVRLIALKINGRWLVKHFDVT | 1.29
2 | DEQKNWAKIMLELLEHAWRTGDEHTLQELADPNTRLNIGDKDIIGWDLILTVLIEIRMSFSYRLEEVHTFENHVVLRTRLIRVLHFDGKSTEFVKETELYIEKVDGRWILRHIVIK | 1.29
3 | DEQNELLDRLSTILLRLLWTGDEDQWLRLADPDMKLDVGNFKTVGRERVIEIFRAWERHIRVERMHLEDTKLQGDFYFSDYRVDGQINGQRTDTRVIYIFVVVNGRMKSIKVIIE | 1.34
4 | DEQQEDAEHATELLLRLLETGDWSTFEKLMDPHVRVDIGDKHLHGREMSSHFIKELVERYPNLRISFKDMRVQGEFIHVIGEVNFNGQRFHSEWVVLKVDGRWTINSVRIE | 1.28
5 | DEQSRVSEEVIKIWLESVNTGDEKSLSELIDPNVKIHVNGKKMHGWRDAEDHARRIDHMHVEDFKIESIQTQGDFAILHGRLVYSRIVNGVELHSDEHVEMVILKYNGRWSIEEVRVR | 1.27
6 | DEQTELEDKMRELIMRTWDTGDEKLLQELADPDARAHFNINGQTDSRHGREEILRLFIKLWEILGVDHLHLQHVSVIDGKFHIHQEVRYDGKVTFLHIHVWIVNGRNRQFNVHIEHR | 0.407
7 | DERDEAEKVLMKILLDNHHTGDEESLERLIDPNAKIIYGDKDYVGWELMIEWVRHARVHRVEIKDSRVQGDKVNLDGHEDGNINGKRRRTNVIVYLLKINGRWFFHSIQID | 2.17
8 | DERDEEAHRMTETFYELQRTGDEESTHHLADPHVKFEYLIGDKYFEIHGWDRVLEFWLRYKGVREEIDHRRVRVINGKIHIELIVKIRIGDKTHVHRIELNIEKVDGRWILREVRVEVK | 1
9 | DERDEETRRAIEWWVEVLKTGNFKDIKELADPNARVHQGDKHFHGMDHFLDFLERLGIDHVQINHIHYFDGKIEIDHHVRIGDKETRVIFISDKIDGRWRITEVQFH | 1.13
10 | DERDEHAHHFFELLLKMWETGDEHELIKFFDPDPRFIYNGKELHGREIAEEFIKEWRVHDMRVKRINVQGEKVIFDGIMDGEFNGKRIFIETHIYMTKVNGKWRTKFIEFN | 1.42
11 | DERDEHSRHVAELWLQSMETGDWEHDRRLLDPNMKFEAPNHSLHGRDSYVETMRKIKNLVIHDTKIEHYEVQGDKAHVQMRIDVIVGDKRTWVEVRVEIVVVDGVLHSLRIEIE | 0.777
12 | DERDELLEHVIKLHQDALRTGDEHTLTELMDPHVRVIIGDKHHHGWESITKYLRELRFHSHEVHIDHVHIFNGRIHADITLRGTHHFNGRTFHDTHKVELINTKINGKWTIESLIIR | 1.15
13 | DERDELVEIVFRLYLRLLTTGDEQEWHHLADPDTRLHIGDKDFHGRENVNKHRRDNLERVKGIKLRDVKITQVHLIDGVLHIDIRLDVEYDGRRTELKVRVISEKVDGKWFIKSIIIE | 1.44
14 | DERDELVRQLMEWLVRAYITGDFETLKNLFDPNAKVRVNGRELIGMETFWQLLWHLRFTDHKIDSVEMQGEKVTVNVTLFIDVNGREETKKSHLIFVVVNGRLKSMDFRYE | 1.66
15 | DERDEMSRHLVRLWIRLYRTGDWKELYDNLDPNARLIIGDKEYHGREEVVEIFLELAKRFKNVKVEFKEIHFQGDKMTLREEVRQGDWRVEVIIKVEFIDGKLHHVQIIFG | 2.75
16 | DERDEMTDHALQRVHEMLLTGDERLLSELFDPNARSQIGDKHVHGRDEVAKTFTEQLEKLGVDHVHFRSVDIQGEKLIIHMHFRVGDKHFQVIIIIVKVNGRWYWTNMHVILH | 1.1
17 | DERDEQAEEAMKIWIHSVQTGNEDLLRRLVDPHVRITVGDKEIHGREQFAEYYHRLVTELRIHIHIHRITVINGQVHSHVEIRIQIGDKEISFETRMFILKVDGVWLFKREEVT | 0.744
18 | DERDERLTEFLELYFKLWFTGDEDTFAHLADPNTRSVFNGKWIHGMESYSEWVEKHMRHLRFKDMKIRDSRVVDGQIHMNTEVEGEVNGQRYRVETRIILDVIDGRIKEVRLHIH | 1.24
19 | DERDESLKNIFELLERILETGDEDDSSKLADPHTRMHWNGKELHGRELYADLFDRLLRELGVDHVRLKIHEVRIQGDKIRMDGTLHLIQGDKEERRRVHLVAHKINGRWHIKQVSIN | 1.26
20 | DERDEVLEDTARRVLEWLTTGNWEELAKYADPNVKNDINGRIDHGREEMSRRIREELHKVKNLKFNITYFDIIGDKVHFWGTLHYDGRTMETHIHIEVVDGRLHHMQFEIK | 0.983
21 | DERDEYLHEWTRLLIELFETGNFEFLVEMMDPNVQIDIGDKHFIGWELAVHFLEEFLRQFKNARWEITRFRRYDGRIEMDTIMRINGREIKVKIIVIVIDGRVKSRHEEYR | 0.595
22 | DERDREVHLASELLHRIVRTGNEEVFEDYLDPNVRVRVNGVESWGMDSFKHWLKEIRIHSHEVDHFDVIGDKLHFDTRVDGEFDGRRDIYKSEVHAEKINGRWIFKIVIFR | 1.19
23 | DEREDEVRLATEHVERILQTGDEELFRHFVDPRVRMDYNGKDVHGREVILEWIVKIKNLTVRIDDVEVQGDKMLIRSHWTIGDKQHHLRIIATKINGRWESTSVHIH | 1.02
24 | DEREEASERMAELIVHLFETGDEDLIRRMVDPHVRWEFNGREIMGRELTTHVLHEIYHRVKNIRYRIESLDIQGDWLLVNSRLHVNGRTIEIHLIVEKVNGRWTLRELIVKVD | 1.65
25 | DEREEDAREAEEIILEDLRTGDWERISRNFDPNVRMHVGDKKYHGREDAIREIKRLMSDMGIKHHSITDSRLQGEWLFLHVEVHFNGRTHDVEIIMIKVNGKWVFKEVRIG | 1.99
26 | DEREEEAERILREWIKAVETGDFEQIMRYLDPNVRIIVNGKHHHGREILVHLIIRFLRELGADHITFHHDRIHLYDGVLVIDIHLEIRQGDKRYEFHEEIYIIKVNGRWIVRRVIIR | 2.8

Row | Sequence | protease stability score
27 | DEREEEAERIMRLFQEFERTGDEDMLRHLVDPDARWVVGDKFQHGWHHFHRLLHHLRVRDLKPKSLHIDVQGDKVEVILHQEMDGEINGKRVIYHVVVIIIVNKFNGRWRNETVEVRFH | 0.843
28 | DEREEEARKWIELFLRHLLTGDEDSLQELADPHTRNIVGDKDLIGWRFMIKYVRDVRERFDHIEFHITRMEVQGDKVRVDVRIINIVGDKHFEIESHIVTEKINGKWRLKSMELR | 1.51
29 | DEREEELHHMLEVLEFAFHTGDFEKLSKMFDPHVRIDVNGQELHGWKHAHEHIEDLFRKVKNIRLEFRDIRFQGDKIDIDGIMIFNGVRHEVKIITVKVNGRWLWRSINIH | 2.33
30 | DEREEEMQRIMEDFIRAWSTGDEKRLKELIDPRDRMIINGKERHGMEEWKTLWETLGINYIDIEHVHLQGEKARIHGTSKFNGRHHEVRIEIRVVDGRFTEVHVDII | 1.78
31 | DEREEESERWVRLLLHYLLTGDFRRIEELVDPNARSIIGDKRHHGREIVVEWMTRYKNARVEVKDFHIQGDKLQLHVEVQIDGRTFKLDIELYKVNGKWLLRTLHVEEL | 1.44
32 | DEREEESKRATEKVTRDIHTGDEDLHRHLLDPNAKLVFNGREFVGREEVEKILKWFLDRAGVDKINMTIHDVRVVDGRIKLDGRNNINGVEYTVIWISEKYNGRWFDRMIIFS | 0.493
33 | DEREEFIHIAIHLLIHVDRTGDEDTYRKMMDPTTKLEVNGVKYIGRQEVIKFLRHIRIDSQDIKRWELVGDKVDLDVHVDGDVNGRRVREDRQIHLWKVDGRWVLEKIEYK | 0.955
34 | DEREEFVLSMAELWIHAVLTGDEELERQLIDPHARNNINGRTIHGMEMFNKFWIRLLQEIRFEIEIRRFHIQGEKMHFDGVLRLRYDGREEVLRVHVEIVIVDGRLHEVHIKIK | 1.33
35 | DEREEHAEEIFRELIHWMETGDEKKMRRYFDPHARLEVGDKEFIGREKISEWMVELRLKDHKERHFDVVNGVAEIHGVMDGIIDGRRHRTEVIIDINIINGKFHRIRIIVK | 1.21
36 | DEREEHHEENARLLLEQFKTGNWDFLRSLADPNVQHNWDGRKSHGRESMVRLLIDHIRKVKGMRTEEKEVEFQGDKVILHGRVNINGREIEVIFILEVVDGRIKSLHIDFR | 0.697
37 | DEREEIAKHLLDLLMHFSKTGDWKKIEDLFDPNTRIHINGVEHVGMEEIARHISEWRIHSIHIKHLDYQGEFIHMDGELDVEVNGRRHKTRMHIIVVKYNGRWLIHHIEVH | 2.03
38 | DEREEIIRKALELFIFSMKTGDEHTLTELLDPNVRLLVGDKEFHGREVFHILIQQFKNIRVEHFEHKDWYEQGDKMRITGRLTFRQGDKRTEIDTTLIILKINGRWIMHDIVIS | 2.17
39 | DEREELAEHMIRLLTERLITGDERIEQELADPNVRFELDINGKSVDTHGMENVLEWIRKWYEHFGVTNFDLRIHRIRVIGEYAHNDGEIIQGDKTRRVHIRMVVINGRVHEVIIHVR | 1.22
40 | DEREELDEHWFRLQFQAMETGDENLVRDNLDPHVKVVVGDKEFVGRHYAIRLFHDLGVDHLVKKSEDRQGEKVIVHGRLDIGDKRHEIVLIIRKIDGKWVVHEIIIR | 1.35
41 | DEREELIQRFLEMLIHLYLTGDEDWFLRMADPNARLHWNGKDRHGREIILEELIRLLRRFDHVRIDVKKFEVQGDKVIADGLEIYTQGDKRIEVDTKIVLTTVNGKLKTLVWHID | 0.642
42 | DEREELLRRWTEEFLDVFHTGDPKETMDMVDPHARIIVIINGRTIEDHGWEHVKILLEQIRVHDFHLTDVRVVNGKVRIDGRYDGYVNGQRVDHHVIIINVVVDGRTHTLLIEIR | 0.804
43 | DEREELSKHITERFIRSVQTGDERVLKELIDPHARVIVDGRRFIGRHVWVKILKDLGIDHLEIEHVDLIGDKARIDSRVDVDGQEHNVKIHLEVINGRIHWIEERIK | 1.04
44 | DEREELVTRFWKFFVEASRTGDWRKLEDRADPHVRLHIDGVDLHGREEFAEEHRRHLKKFKNVKIHYEIHDMDIQGEKVHVDYRIRLDIGDKRTENIIRMDIVKIDGKWLIQEMHVD | 0.89
45 | DEREEMSRHMINLWNRHLETGDEDRISKLADPHVKVTNEDEEHVGRESAERFVRLMGFDHVHLHDIHIQGNKVISTVEIRIDGQTYQSDVVALKVDGKWKVKNVHIH | 0.711
46 | DEREEMVERFLTEWLRSLVTGDWEDSEKLFDPNVRIHVNGREFHGRHEAIKHFHELRIHKIELKSIDIQGNKAHVDVEVDGNVNGQNRIIKVNLFFKKVNGRWYFEQVEIH | 1.24
47 | DEREERNKQISELLWHALLTGNWEMLQHLADPHVRVDINGVDLHGRELLVKHLKKFGVDHSRHHDLEIQGEKLIIRGEVEVNGKRIDVEIRIEVIDGKVKHVEVHEN | 1.24
48 | DEREERSRHQMEWLWHLMITGDERLLEELADPHAKIEVGDKDFHGRHTLIEIIREHLQRVKNVRLEFREIEIQGDKIIIRGKLHIGDKEKDIIVIIVVVNGRLKSFKLEVH | 1.19
49 | DEREEWVERIERRLKEAIRTGDEHTLSKNMDPDAKLDINGVDLIGWERVIDFLRELRKELGVDKIHFRVESRRIIGDKAELDTRLHVNGKHHDTHVIIEKFNGVWSIHSLHVR | 1.15
50 | DEREHDLRRAVHIHRELMMTGDESNFLSYADPNTRLEVDGQEVVGREEVFKWITNVLSRHGVELKDIRVKTMDHQGNKLILHVEIRTRIGEKDTSVDFTLVVEKVNGRWVLHSLEIH | 0.16
51 | DEREHSVKLAFDKFLEDLHTGNEEMLDRFLDPHVRYHVGDKERHGRENFSRHVAKFLTEYGFKHLHLHMKDWEVQGDKATIEGHVNMHFNGRLIRHNTHLVIWKVNGRWLLESSEER | 0.699

Source: the NTF2 design screens of Basanta et al. (2020)
